# Measurements as given in PMC6690836 (Angewandte Chemie (International ed. in English), 2016).
# B1: Water soluble chlorophyll binding protein from cauliflower (CaWSCP), recombinant, assembled with Chl a (natural protein)
# chain: REQVKDSNGNPVKRGAKYFIQPAKSNGGGLVPAAINILPFCPLGITQTLLPYQPGLPVSFGYEPVIVGTDYIYTSTTINIEFRSEIWPVCNELSKLWAVDVSSSAAKEPAIIIGGERTAPNSLFKIEEATGAHTYKLTTSSGTVGTIPGPWLGAPQLIATNDDAKTLFVKFVKVDDDAT
# Target: the molecule itself
# Test: crystal structure
protein,measurement,value
B1,stoichiometry N,4
